Biological target: wild-type src SH3 domain (T7·tag/His6 construct) (UniProt P00523 81-140)
Assay: other fluorescence titration; fluorescence perturbation assay; aliquots of peptide added to SH3 domain (0.5 µM) in PBS pH 7.4, 10 min at 20°C; excitation 278 nm, emission 350 nm
Settings: both partners purified

B1: VSL12 peptide (peptide)
peptide: VSLARRPLPPLP
notes: The methods of the fluorescence perturbation assay say only 'peptide VSL12'; also called free VSL12 peptide; peptide VSL12; source: synthetic peptide, bought: Invitrogen
- Kd: 2300 ± 470 nM
